Data: patent publication US20230227547A1, “ANTIBODY-PAYLOAD CONJUGATES WITH ENHANCED DELIVERY DOMAIN AND USES THEREOF” (IPROGEN BIOTECH INC., priority 2019, published 2023)

Target: CD22 (human) (UniProt P20273)
Test: cell-based or functional assay

Anti-CD22 mAb-LL37-MMAE8 (Inotuzumab ADC with LL37) (antibody)
IC50 (nM), XTT viability, RL cells, 72 h: 0.235 nM
IC50 (nM), XTT viability, Ramos cells, 72 h: 0.035 nM

Anti-CD22 mAb-MMAE8 (Inotuzumab ADC) (antibody)
IC50 (nM), XTT viability, RL cells, 72 h: 0.26 nM
IC50 (nM), XTT viability, Ramos cells, 72 h: 0.04 nM
